Among the data in a protein production outcome set (Wang et al. 2014) are protein production values, retold here.

A short description of the data set: label from the status in PepcDB records.
For “MSIRPATHAGSWYSNRAQELSQQLHTYLIKSTLKGPIHNARIIICPHAGYRYCGPTMAYSYASLDLNRNVKRIFILGPSHHIYFKNQILVSAFSELETPLGNLKVDTDLCKTLIQKEYPENGKKLFKPMDHDTDMAEHSLEMQLPMLVETLKWREISLDTVKVFPMMVSHNSVDVDRCIGNILSEYIKDPNNLFIVSSDFCHWGRRFQYTGYVGSKEELNDAIQEETEVEMLTARSKLSHHQVPIWQSIEIMDRYAMKTLSDTPNGERYDAWKQYLEITGNTICGEKPISVILSALSKIRDAGPSGIKFQWPNYSQSSHVTSIDDSSVSYASGYVTIG”, the protein production result is “failed”. As for “MKVYLHFSPQFFANTYLIGNEITKEAVIIDPAKITEKMIHQIEKNEFNLKAVLLTHDLEHPYETGLNTILKIYSPKVYAGSCFSENVTINTLRGDGCIDVAGYSVRYFAIPAHSSYSYMFQIENMVFTGTSLSAGMIGQTSNMYAERTLRNILKTKLMCFEDNLIIMPFYGPPTSIGVERKYNASFFQDFEKKPFLEHHHHHH”, the entry is “not failed”; as for “MDPKSCENSSDVKGQTSDSVSKKVLIEEEEDVKKPQQGKENDSRMAKDVVSCSSNISAHVVHEEVADNVTAVSCNEAESDISKAKAKEFHTIDLSGVGERICRICHFGSDQSPEASGDDKSVSPELIEIGCKCKNELGLAHFHCAEAWFKLRGNR”, “failed”.

For the sequence “MKKKKYVNSGTVTLLSFAVESECTFLDYIKGGTQINFTVAIDFTASNGNPSQSTSLHYMSPYQLNAYALALTAVGEIIQHYDSDKMFPALGFGAKLPPDGRVSHEFPLNGNQENPSCCGIDGILEAYHRSLRTVQLYGPTNFAPVVTHVARNAAAVQDGSQYSVLLIITDGVISDMAQTKEAIVNAAKLPMSIIIVGVGQAEFDAMVELDGDDVRISSRGKLAERDIVQFVPFRDYVDRTGNHVLSMARLARDVLAEIPDQLVSYMKAQGIRPRPPPAAPTHSPSQSPARTPPASPLHTHI”, the protein production entry is “failed”. For “MHFTRALRIQLIPSFFFRAIYPLVVLLILLHAQSGLAETIYRSTDSHGRTLYSDIPTPAAKPLQPATPPARSKYRVTRVIDGDTIVLENNKRVRLLGINAPETGNRYHPGEPGGADAKKWLRGKLQGRSVYLEHDRQTHDHYKRMLAHLYLPDGEHINLSLVEKGLAIANLIPPNLLHANTLIRAQQRAETRKLGIWSMQHYQPRPLIKLTEKPFGWQRYRVKAKVLKRNHRFSRLIISDNLDLSFANRDLALFPPLETYLNRPLEVRGWVSRRKNHFSIRIQHPSALILY”, the protein production entry is given as “failed”. As for “MITDCCPGFGSVAKYIAVSMLEASFDVASMAKTSTKVFILEVMGRHAGWIAAAGGLASNEDHEVPIIILFPEVTFDQEKFLAKTDHYVKEYGYCTVVVSEGVKGTDGKFLSDQGLRDAFGHAQLGGVAPVIANIVKNGLGLEHHHHHH”, the entry is “not failed”. To “MKNDTAALAADIVDFWKKAGPDKWFDKDAAFDNHFHDRFRDAHFAAARRELDGWLEGAESSLALMLLLDQFPRNCFRGTAHMYATDPLARFFADEAIRRGHDQAVSEDLRVFFYLPFSHAEDIAAQQRACDLNQPLGGLYLHHAEEHRDIVERFGRFPHRNGILLRETTPEERQYLEEGGFSG” belongs “not failed”; to “MWKKKIVLSFLFYLISALGISLTIQAGVGVSSFNAFNVTFATLTHLKVGTVTTAINFAFLGTCWLLDQQRKIQDYLIILVALIGFGFVINFFLYQLFGSLVFQNYLVKIVLFILGTIIAGIGTGQVVALGVLQFPIEKFCTLISERTRYSFQFYRYLVDIFCVSLALGLSISYHLPIFVREGTVISLFLLSWVISWSRKRGQQRILRIQIKKLESE”, “failed”; to “DLDGLLQRTVERARDMLDADSAFLLLATDDETELEVRASTGLPSARQRFARVPVDAGPGRYGSARMPAVHDDLTAVPGAVPLLSGTGMRSVVTVPLKVEGRLTGSLGVAAESPSRYSNEEALRLQFAADRIALAVESA”, “failed”. As for “MMKKSATTSSACNGCPAHSGNKLRRMGTDAERYDFTIALAGNPNTGKSTVFNALTGLKQHTGNWPGKTVEKAEGAFSYAGSSYKIVDLPGTYSLLSTSEDEEIARDFILFGKPDVTLIVADATRLERNMNLILQILEITDRAVLCANLMDEAERNGVEIDLRGLSRRLGIPVVGASARSGEGISDLLSALSEVAQGIYRCTPHRLTSIGTEIDTRIDSLAESIRLFHPDTPNSRWLALRLTEGDRRVENILYADNEAPAEKLKKEVDEFRRNFGEDLHDQLSEALYSDAGKICQEVITQANKRGRTPLDIKIDRIVTSRKWGFPIMLLMLALVLWITIVGSNYPSQWLSDSLVGILHPLLKTRATGFLPDWLSGFLIDGVYLATAWVVSVMLPPMAIFFPLFTLLEDFGFLPRVAFNLDELFRRSGAHGKQALTMTMGFGCNAAAIINTRIIDSQRERLIAILTNNFSLCNGRWPTQILLATIFLTPAVPAYLRGVIGIGSVVAIALLGIAFMFFFSWVLSRTLLRGQVSTFNLELPPYRPPQFWQTIYKSIVDRTLVVLWRAVVFAAPAGALIWLTCNIQIGGVGIAEYLIDLLDGPGWLMGLNGVILLAYVLAIPANEIVIPTILMLTVLTTGIDGGTGAGVMFEADGTAETARLFEAGGWTMLTGINLMLFCLLHNPCSTTLFNIYKETGSRKWTLLAALIPLATGFVVTVAVAFVWRLVGG”, the entry is “failed”. On to “MTSRRLEESMGAVQMGLVNMFKGFQSKVLPPLSPKVVTEEEVNRMLTPSEFLKEMSLTTEQRLAKTRLMCRPQIIELLDMGETTHQKFSGIDLDQALFQPFPSEIIFQNYTPCEVYEVPLILRNNDKIPRLVKVVEESSPYFKVISPKDIGHKVAPGVPSIFRILFTPEENKDYAHTLTCVTEREKFIVPIKARGARAILDFPDKLNFSTCPVKYSTQKILLVRNIGNKNAVFHIKTCRPFSIEPAIGTLNVGESMQLEVEFEPQSVGDHSGRLIVCYDTGEKVFVSLYGAAIDMNIRLDKNSLTIEKTYISMANQRTITIHNRSNIIAHFLWKVFATQQEEDREKYRACDDLIKEEKDETDEFFEECITDPLLREHLSVLSRTFANQRRLVQGDSKLFFNNVFTVEPLEGDVWPNSSAEITVYFNPLEAKLYQQTIYCDILGREIRLPLRIKGEGMGPKIHFNFELLDIGKVFTGSAHCYEAILYNKGSIDALFNMTPPTSALGACFVFSPKEGIIEPSGVQAIQISFSSIILGNFEEEFLVNVNGSPEPVKLTIRGCVIGPTFHFNVPALHFGDVSFGFPHTLICSLNNTSLIPMTYKLRIPGDGLGHKSISYCEQHVDYKRPSWTKEEISSMKPKEFTISPDCGTIRPQGFAAIRVTLCSNTVQKYELALVVDVEGIGEEVLALLITARYCSPACSSPESPPSLQ”, for which the protein production result was “not failed”.

Consider “SYETSQHNLDAVEAVLSRLQKQTGEMAAYMVPVGYRALCVSQRESMQALRCSFVQGQSQPLLRGASSKVMLAYMPAARCEKILRYFGEDPTLDKWQSEFEKIRRHGYAVSTSEIDPGVSGISAPVMKGSKLIGAISVMAPAHRVESNKQRIILHVLQAARAL”, for which the protein production result is reported as “not failed”. To “MKKNLLYLSCALMCMLGFLSSCKDDEKEIPPVVEDVVAQYTGDKVKVTLGGEAVSGDAQIDLVQQDDKSLTIKLLNIIPDVKEFSIPNAEFEATTRSAYISKLSGKVSNAVVGYDVTFEGVVDEGVLTASITATEIKGDSINAKKAGLTGKTFKGKMTINVSNIPTPIEMEQRVYTSVVSKDTSAIKLKINDFAFQGLKLGDISLDTVAVRHRGEQDGKPIYGFKTKSQEMTLEAVGKVLIDANGTIIGEKMELSLNVNAVTAGLTVGVDFSGNIVEESTDTKATITVTGDAVAEGVTVSGNTYTFKVWESTPDDQLVFIPKIEIPATAVLDSIIIYDNRNKKVSAVEPNTAIDFSQLKENYYVGYHVTPEDIRYPSKKMLKMVRIAELNPVYDMATWVADGDFEKPNGLTTSNLAAAFFPMFGIDVPTPVVKASDNAAEITTSRTVSATLPSTLVPGVTAGTMFLGEFKVDITNTLKSTHFGVPYRVKPVNFKITYKYTPGTTFYKTVVKNNANDTEVVPNEKDECSINAYLYEVDSYAETLDGTNINTSNKVIMKAVLEDGSAKADYVTLTIPFKETGNGSFDPTKKKYKLAIVCSSSKKGDQFMGADGSKLWVKYLEVTR” belongs “failed”; to “MKWRSRQLSFSSAKWYGDVIWIFDPGIIGAQIDNEGDLKKCFIQTLFHSTGSRQSIRIWWREIMLSLILRIYLDKFLPWISLSIKEVGESSVINFSLWGCLHGTRFRRWYSPFQKLSALAITKKDVISSSWRCFNGMRCN”, “failed”. As for “LICLLSSLLSVQAAPGPHPHWSVGFHEMSFLDPLDRQPMRAIAFYPSTGIEHGSQLEGYQIAASRDAKIAIGRFPMLMLSHGNTGTPLALHDLATSLARKGFVVVAVIHPGDNSKDHSRLGTLSNLYGRPIQISEAITATLGDPMLSPFVNADQVGVIGYSAGGETALILSGATPDLDRLRRYCQERPNDRDACNTQGELIVDRDDLQPVADPRVHALMLLAPLSLKFGRQTLAGVHVPVLLYSGDGDQLVALDKNAAALARKLPVAPDFKLLAGAGHFVFMAPCSAQQMAAMPALCTDADGVDREDIHRNLILEAGNFFA”, the entry is “failed”; as for “MFSLREYRNKADRLADFLPWAALVAPGVVLNKDGSFQRSARFRGPDLDSATPAELIATTARLNSALRRLGSGWAIFVEAVRRPAHDYPESDFPDAASALVERERAAQFAEEGAHFESAYYLTLVWMPPAEDAARAESWLYEGKAHQGVQARELLELFSDRTDRLLRLIEGFVPEAAWLDDSETLTYLHSCISTRNHRVRVPETPMHLDALLADEPLTGGLEPRLGRAHLRTLTVVGFPSATFPGILDELNSQGFAYRWSTRAIMLDKTDAAKLLGKIRRQWFAKRKSVAAILKEVMTNEASALLDSDASNKAADADAALQELGSDLQGMAYVTATVTVWDEDAAMAAEKLRLVEKVIQGRDFTVIVEGMNALEAWLGSLPGHVYANVRQPPISTLNLAHMIPLSAVWAGPEWDAHFRAPPLFYARTEGSTPFRFALHVGDVGHTLIVGPTGAGKSVLLALMALQFRRYDRAQIFAFDFGGSIRAAALACGGDWQDLGTSLAGDGAGAVMLQPLARIDEPAERNWAAEWLQAVLTGEGVTVDPATKEHLWSALTSLSTALVAERTLTGLAVLLQSQALKQALAPYCIGGPFGRLLDAEAEQLGAGKFQAFETEGLTGSAAAPAVLSYLFHRIEGRLDGSPTLIIIDEGWLVLDSPAFAAQLREWLKTLRKKNASVVFATQSLADIETSAIAPAIIESCPTRIFLPNERAIEPQILSVYRRFGLNDRQIEIIARAAPKRDYYCQSARGNRLFELGLGEVALAFAAASSKTDQLAISELTETHGTGGFARAWLRHRGLAWAADMLPPDPVPPTRSDQAAGQPKE”, “failed”; as for “MNYVELLGYLAMLLVGLSFLMKDVIKLRFVNALGCICFSIYGILIGSFPVAALNGFVACTNIYFLINNNKD”, “failed”. As for “MIIHIRRTDEKQRWLFFSTLLNATLAVAKLGWGWMMGSTLVVADGIHSISDVFGALLIFLALFFAAHKSERFPYGLHKLEDMAAVLGGLGILYAGYEIIHSVFFEAGIKTPEAIWTTIGFILAIVFIQYTFYFFELKAAQRLGSPGVKADAVNWLGDIGAGMIVVIGLVAHHYKVPYAQEVSVIIIVLMILKGAYDVLKEGLLSLLDAADIEMNDTIRNIVMAEPDITNIKRLNVRKSGSVYFADIELSIAEVATAKAHKSIDEVVNRLHEEINTLEAVTIHYEPDHPPYRTVVRLLDKDKKHLSIHFGQTAWLEITHIEADNKQISKEFVKNSAVIAPKGKAFRLVAYLLSIHTDTIVMGNAELDENILTLFEALNIEVKKEKNDET”, the entry is “failed”.

In the case of “MRVLVTGGAGFIGSHIVEDLLARGLEVAVLDNLATGKRENVPKGVPFFRVDLRDKEGVERAFREFRPTHVSHQAAQASVKVSVEDPVLDFEVNLLGGLNLLEACRQYGVEKLVFASTGGAIYGEVPEGERAEETWPPRPKSPYAASKAAFEHYLSVYGQSYGLKWVSLRYGNVYGPRQDPHGEAGVVAIFAERVLKGLPVTLYARKTPGDEGCVRDYVYVGDVAEAHALALFSLEGIYNVGTGEGHTTREVLMAVAEAAGKAPEVQPAPPRPGDLERSVLSPLKLMAHGWRPKVGFQEGIRLTVDHFRGAV”, the protein production result is reported as “not failed”.
